Data on 2 substances can be found in paper PMC9138545, “Incorporation of Oxidized Phenylalanine Derivatives into Insulin Signaling Relevant Proteins May Link Oxidative Stress to Signaling Conditions Underlying Chronic Insulin Resistance” (Biomedicines, 2022).

pKd: −log10 of the molar value. A value given as a limit tells only on which side of the number the result lay.

The pKd is the negative decadic logarithm of the Kd, by convention in mol/L. Low readings indicate a high Kd, high ones a low Kd.

Experiment [1] addresses C-terminal SH2 domain of PI3K regulatory subunit 1 (UniProt P27986). As to the kind of experiment: FP.
Experiment [2] addresses N-terminal SH2 domain of PI3K regulatory subunit 1 (UniProt P27986). In words: FP.

C-terminal SH2 domain of PI3K regulatory subunit 1, sequence (P27986 614-724): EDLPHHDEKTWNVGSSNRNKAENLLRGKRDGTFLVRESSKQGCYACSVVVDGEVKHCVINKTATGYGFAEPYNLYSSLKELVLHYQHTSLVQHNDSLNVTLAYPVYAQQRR
N-terminal SH2 domain of PI3K regulatory subunit 1, sequence (P27986 321-433): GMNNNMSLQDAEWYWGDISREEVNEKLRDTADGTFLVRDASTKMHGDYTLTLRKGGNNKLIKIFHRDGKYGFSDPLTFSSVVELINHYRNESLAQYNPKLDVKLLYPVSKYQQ

Turning to “phospho-meta-Tyr IRS-1 peptide GRKGSGD(pY)MPMSPKV”, the pKd in experiment [1] was 5.19; in experiment [2], 4.27.

Turning to “phospho-ortho-Tyr IRS-1 peptide GRKGSGD(pY)MPMSPKV”, the pKd in experiment [1] was below 4.40; in experiment [2], below 3.82.
